test system: K4 kissing-loop RNA reporter; assay: apparent KD of K4 kissing-loop reporter; higher = weaker reporter binding; conditions: Eterna round: R107; input ligand: arginine 13.2 mM
Description: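 RNA-MaP round R107: designed RNA switches with theophylline, tryptophan, arginine or FMN aptamers are transcribed on-chip within common flanks. They are titrated with a labelled K4 kissing-loop RNA reporter in RNA-MaP buffer (100 mM Tris pH 7.5, 80 mM KCl, 4 mM MgCl2), without ligand or with the indicated ligand. Median apparent KD per design.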
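Also: bound reporter read as fluorescence of individual clusters on recovered sequencing chips by microscopy, with normalized cluster intensities fitted with a binding model.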

Row | Sequence | apparent KD of K4 kissing-loop reporter
1 | GGUAGCAUGGCGGCCGCCACUGCGAAUGACGGCCACGUGAAAGUUGCCGCAGAGUGAUGUUCUGGCAGGACCGGGCCAUGCUACC | 372 nM
2 | GCGCGGGAGUGAUGUUCCAAGUGGUGUUAGCGAGGACCGGUACGGCCGCCACUCGUUACGGGCGGCCCGUAGGAUACACUGGCGC [Same State - Tryptophan A (Freestyle 18)] | 399 nM
3 | GCUAUGGUAGGAAGGAGCGCUUAAUUAUUAAUAAGAGUGAUGUUCGAUAAUAAAUAUUUAUAGCAGGUAGGUCGCCUACUAUAGC [KL-SSArg B22] | 168 nM
4 | GGCAUGGUGGCGCGGCUGCCAUGCGCUUGGGAGGAUAUGUUUCGUGACAGAAGGCCCAGUGAUGUUGGGUCUGUUCAAAAGGACU [Onrabe] | 149 nM
5 | UGAUACCAGACUGAUACCAGCCAGUGAUGUUGGCUGAAAUCAGGGUCAAAGACCCUGUCUGGCCCUUGGCAGCAGUCUGGUAUCU [TheoBX 19 #SwitchBubble #StaticStem] | 251 nM
6 | GCUAUGGUAGGAAGGAGCGCUAAUUUAUUUUUACGAGUGAUGUUCGGUAGUAGAUUGUUAAAGCAGGUAGGUCGCCUACUAUAGC [Arginine B K4 17] | 124 nM
7 | AAAUAGAUCAGUCAACCAGUGAUGUUGGAAGGAGCGUGCGAAAGCACAGGUAGGUCGCCAGAAUAAAAUUGGCUGAUCAAAAUAA | 338 nM
8 | AACUGUCAAGGACAACAUUACUGGAGUGAUACCAGCAUCGAAAGAUGCCCUUGGCAGCACUAACUUGCAGUGAUGUUGCAAGUAA [BrourdMod 6 - Jieux - Exclusion - Theophylline A] | 174 nM
9 | CCACUAUUCUUGUCGGAGUGAUGUUCCGAUACCAGCAUAGAGAUGUGCCCUUGGCAGCGGUCUAUUCUACGCCCGUCUAUUUCAA [Somari] | 125 nM
10 | AAUUAGCCGUAAGAAUAGUGAUGUUAUUCACGAGGACCGGUACGGCCGCCACUCGAUAUUGGAAUAUUGAAUUUUUUAUUCUAAA [JR_SSTryptoA_Sub009] | 474 nM
11 | GCAACAUUGGGAGGAUAUCAUUCUGAGUGAUGUUCAGGGUUCAGCUAACGAAAGUUAGUUGUACCAUGAGAAGGCCUAAUGUUGC [Omei KL FMN B SS A v2] | 769 nM
12 | ACAUGUGCCAGUGAUGUUGGCGUACGUGAUACCAGACGAAUAAAAGUCCCUUGGCAGCACAAAUAAGCCAAGAUAGAUGAAUGAU [#03 K4 Theophylline A Exclusion] | 159 nM
13 | GCAGUGAUGUUGCACGAGUACGGUAGAGUACGAGGACCGGUACGGCCGCCACUCGUACGGAACUGGCUAAUUUAUGGAAUGGUGA [II] | 463 nM
14 | CGCCAUAACACGGCCGCCACUCAUCAAGCUCAGUGAUGUUGAGCAGCAGCUGCAAUCGCGAUUACGAGGACCGGGUGCUGUCUGU [theeternabot_sameState_KL_Trp_B_50] | 329 nM
15 | UGUGUUUACCUGACUCAGUGAUGUUGAGAAGGAGCGUGCAAAUGCACAGGUAGGUCGCUCAACCUAAAUUCAGGUGAGCACUAAA | 261 nM
16 | AGCAGCAAAUCCUAGUGAUGUUAGGAUAUGUAGGAUAUCGGGAUACCGAGAAGGACAGAAGGAGGAGUGAUGUUCCUCAGCUGCA [FmnAX 23 #DoubleAptamer #DoubleK4 #SwitchBubble] | 106 nM
17 | AUUUUAAUCGCAGAUACCAGUCCAGAAUGAAUACUAUAGUGAUGUUAUAAUAAAGGGAAGGACCCUUGGCAGCUGUACUAUAUUA [AstrosSsTheB#9] | 287 nM

Row | Sequence | apparent KD of K4 kissing-loop reporter
18 | AAGCUCAGCGUGACUCGAUAAGAGUCACAACGAGGACCGGUACGGCCGCCACUCGAAAUAAGGGAGUGAUGUUCUCGCUGAGCAA [#SwitchBubble 5 #StaticStem #K4Late] | 134 nM
19 | UAUAUACAUAGAUAGUUGUAUAUCGAGGAAGGAGCGUGCGCAGGCACAGGUAGGUCGCCUCAGCGCACGAGUGAUGUUCGUGGGC [Tezale] | 168 nM
20 | AAGAGCUAGGCGGCCGCCACUAGAUGUGAACACAUACAAGCCAGUGAUGUUGGUAUGAUGGACGGUAGGACCGGGCCUAGCUGAA [Exclusion - Tryptophan B (Freestyle 12)] | 464 nM
21 | GUCCACACUGCAGGAUAUGGAGAAGUAGCGAGGGAGUUUGGAAGCACACCUCUGGCAGUGAUGUUGCCAGAAGGGCGGUGCGGCG [Inlaindi] | 80.2 nM
22 | GGCCACGGGCGAGGAUAUGGGCAUGAUUCAUCCUGGAGUGAUGUUCCAGGUCCUACGUUUCGAGCACCAGAAGGCGUUUGUUGCU [Biazaqure] | 521 nM
23 | AUAAACUUGCAGUGAUGUUGCAAGUAAGACUAGGAUAUCAGGAAGCUGAGAAGGAGUCAUCUCCUUCAAACAUCACUAUGAAGGA [whbob_SS_FMNA__2th177] | 245 nM
24 | UUUGGUAGCGGUGUUGAUUAGGGAGCGGAAGGAGCGCCGAGGAGGGCAGGUAGGUCGCCGGAAUGUAGUGAUGUUGCAUAGAGGU [ExArgA.Ab] | 227 nM
25 | CCUAUCUCAUACGAUACCAGUGAAUUUAUAUUUAUAAGCAGUGAUGUUGCAUUCCAAGUACACCCUUGGCAGCGUAUGGGAUAGG [Ex Theophylline B K4 21] | 203 nM
26 | AGACUACUGAUAGGAUAUAACAUACUACUCGUAUACCAAAGGUAUACGAGAACCCUUCUAGUGAUGUUAGAAGGGUCGGUAGUCA [Omei KL FMN B Exc B v7] | 68 nM
27 | CAAUGAGUUUAAGAUGAUAUCAUCACAGAAGGAGCGAGUGAUAACUCAGGUAGGUCGCUGAAUUUGUCGAGUGAUGUUCGAUAGA [whbob_SS_Arginine_A_sa120] | 153 nM
28 | UUUUAAUAAGAGGAUACCAGUACAAAUAAAGUACAUUAAUAGUAGAGUGAUGUUCUAAAGUACCCUUGGCAGCUUAGAGUAAGUU [ExTheophylB.B] | 242 nM
29 | GUACCUUGGAAACAAGGACAGAUAACCGAAGGAGCGCGUGAAAACGCAGGUAGGUCGCGGAAGCAGUGAUGUUGCAAAAGAGAGC [Same State Arginine A GF 17] | 188 nM
30 | GUUAAGUCGCGAAGGAGCGCGAACUAACAACGCAGUGAUGUUGCGUUGUACGUAGUAUAAUCGCAGGUAGGUCGCGCGACAGGCC [Arg B SS t16] | 85.5 nM
31 | AGUGAUGUUGAGUGAUGUUAGUGAAGUGAUCGAGGACCGGUACGGCCGCCACUCGAGUGAUGAGUGAGUGAUGUUUGUUUAGUGA [hhbmullin] | 74.4 nM
32 | GGAUUCGGCACGGCCGCCACUUCCGGUGGCUGGUGUCAUGGUGCGCGUGAGUGAUGUUUAUGUGGGAGGACCGGGUGUUGAGUCC [whbob_Ex_Tryp_B_w44] | 433 nM
33 | AAGAAGAAUGGAAGGAGCGAGCAGAUAUAACCAGUGAUGUUGGAAAGCCUUAUUGCUUAAGCUCAGGUAGGUCGCCAAGAAGAGA [whbob_Ex_Arginine_B_2t152] | 159 nM

same assay, conditions: Eterna round: R107; input ligand: none

Row | Sequence | apparent KD of K4 kissing-loop reporter
34 | GGGCCAUGGUUUUUGCUAGUGAUGUUAGACCGAGGACCGGUACGGCCGCCACUCGGCAAGUCUUUCGUUAGAUCUCUGGGAAGUC [theeternabot_exclusion_KL_Trp_A_45] | 1110 nM
35 | ACAUCGGUUGAGAGUGAUGUUCCUUGUGUUCGAGGACCGGUACGGCCGCCACUCGGGUAGAAAAUAACAGAUGUGUUUGAUUUUU [BDazzled - #16 SS Tryptophan A] | 144 nM
36 | GCCGUAGAUUGAAGGAGCGGCUUCAUCAAAUCUCUAGCCCACACCAGUGAUGUUGGUGUUAGCCAGGUAGGUCGCAAUCUACGGC | 450 nM
37 | ACGAUCUUCGGCCUAUGAGUGAUGUUUAUGCGAGGACCGGUACGGCCGCCACUCGGGCGGUUAUUCACUACGCCUCUUCCGUCGA [theeternabot_exclusion_KL_Trp_A_37] | 1040 nM
38 | GCCGUAGAUUGAAGGAGCGACAUAAACGAUGUUCUGGUAGUGAUGUUACCUUAGCAGGCAUGUCAGGUAGGUCGCAAUCUACGGC | 209 nM
39 | GUAGGAUGAGGAGGAGGAUGAAUUACUGAAGGAGCGCAUAUUUAUGCAGGUAGGUCGCGGUAAAGAAGUAUAGUGAUGUUAUAUA [SSArgA.I] | 264 nM
40 | CCGCUGUAGUGCAUUAAGUGAUGUUUAGUGCAGGAUAUCUGGAAACAGAGAAGGGCACGUACUCGACGAGGCCAAUACAGCGGUU | 335 nM
41 | AAGGUAUCUAGAUACAUUACUGAACUAGAUACCAGCAUCGAAAGAUGCCCUUGGCAGCUAGCAGUGAUGUUGCUAGCAAUAAGAA [Design3] | 113 nM
42 | CCUAUCUCAUACGAUACCAGUGAAUUUAUGUUUAUUAGCAGUGAUGUUGCAUUCCAAGUACACCCUUGGCAGCGUAUGGGAUAGG [Ex Theophylline B K4 23] | 205 nM
43 | ACAGUAGUGAUGUCUUUGAUAUUACUACUGCGAGGACCGGUACGGCCGCCACUCGCCCAUUUUUGGGUUGAGAGUGAUGUUCUCA [Skye_SS_TA2] | 474 nM
44 | CAUUCUAAAUGCAGUGAUGUUGCAACUGAUACCAGUAUCGAAAGAUACCCUUGGCAGCGGAAAACCGCUACGUUUUUUUAGAAUG [Ex Theophylline A K4 23] | 352 nM
45 | GGUAGCAUGGCGGCCGCCACUGCGAAUGACGGCCACGUGAAAGUUGCCGCAGAGUGAUGUUCUGGCAGGACCGGGCCAUGCUACC | 515 nM
46 | GCGCGGGAGUGAUGUUCCAAGUGGUGUUAGCGAGGACCGGUACGGCCGCCACUCGUUACGGGCGGCCCGUAGGAUACACUGGCGC [Same State - Tryptophan A (Freestyle 18)] | 430 nM
47 | GCUAUGGUAGGAAGGAGCGCUUAAUUAUUAAUAAGAGUGAUGUUCGAUAAUAAAUAUUUAUAGCAGGUAGGUCGCCUACUAUAGC [KL-SSArg B22] | 174 nM
48 | GGCAUGGUGGCGCGGCUGCCAUGCGCUUGGGAGGAUAUGUUUCGUGACAGAAGGCCCAGUGAUGUUGGGUCUGUUCAAAAGGACU [Onrabe] | 133 nM
49 | UGAUACCAGACUGAUACCAGCCAGUGAUGUUGGCUGAAAUCAGGGUCAAAGACCCUGUCUGGCCCUUGGCAGCAGUCUGGUAUCU [TheoBX 19 #SwitchBubble #StaticStem] | 291 nM
50 | GCUAUGGUAGGAAGGAGCGCUAAUUUAUUUUUACGAGUGAUGUUCGGUAGUAGAUUGUUAAAGCAGGUAGGUCGCCUACUAUAGC [Arginine B K4 17] | 106 nM
51 | AAAUAGAUCAGUCAACCAGUGAUGUUGGAAGGAGCGUGCGAAAGCACAGGUAGGUCGCCAGAAUAAAAUUGGCUGAUCAAAAUAA | 333 nM
52 | AACUGUCAAGGACAACAUUACUGGAGUGAUACCAGCAUCGAAAGAUGCCCUUGGCAGCACUAACUUGCAGUGAUGUUGCAAGUAA [BrourdMod 6 - Jieux - Exclusion - Theophylline A] | 196 nM
53 | CCACUAUUCUUGUCGGAGUGAUGUUCCGAUACCAGCAUAGAGAUGUGCCCUUGGCAGCGGUCUAUUCUACGCCCGUCUAUUUCAA [Somari] | 135 nM
54 | AAUUAGCCGUAAGAAUAGUGAUGUUAUUCACGAGGACCGGUACGGCCGCCACUCGAUAUUGGAAUAUUGAAUUUUUUAUUCUAAA [JR_SSTryptoA_Sub009] | 552 nM
55 | GCAACAUUGGGAGGAUAUCAUUCUGAGUGAUGUUCAGGGUUCAGCUAACGAAAGUUAGUUGUACCAUGAGAAGGCCUAAUGUUGC [Omei KL FMN B SS A v2] | 964 nM
